Results reported in IntAct's records for PubMed 15486100.

B1: Transcription factor PIF3 (Arabidopsis thaliana (Mouse-ear cress)), O80536 (parent)
chain: MPLFELFRLTKAKLESAQDRNPSPPVDEVVELVWENGQISTQSQSSRSRNIPPPQANSSRAREIGNGSKTTMVDEIPMSVPSLMTGLSQDDDFVPWLNHHPSLDGYCSDFLRDVSSPVTVNEQESDMAVNQTAFPLFQRRKDGNESAPAASSSQYNGFQSHSLYGSDRARDLPSQQTNPDRFTQTQEPLITSNKPSLVNFSHFLRPATFAKTTNNNLHDTKEKSPQSPPNVFQTRVLGAKDSEDKVLNESVASATPKDNQKACLISEDSCRKDQESEKAVVCSSVGSGNSLDGPSESPSLSLKRKHSNIQDIDCHSEDVEEESGDGRKEAGPSRTGLGSKRSRSAEVHNLSERRRRDRINEKMRALQELIPNCNKVDKASMLDEAIEYLKSLQLQVQIMSMASGYYLPPAVMFPPGMGHYPAAAAAMAMGMGMPYAMGLPDLSRGGSSVNHGPQFQVSGMQQQPVAMGIPRVSGGGIFAGSSTIGNGSTRDLSGSKDQTTTNNNSNLKPIKRKQGSSDQFCGSS
B2: Transcription factor PIF5 (Arabidopsis thaliana (Mouse-ear cress)), Q84LH8 (parent)
chain: MEQVFADWNFEDNFHMSTNKRSIRPEDELVELLWRDGQVVLQSQARREPSVQVQTHKQETLRKPNNIFLDNQETVQKPNYAALDDQETVSWIQYPPDDVIDPFESEFSSHFFSSIDHLGGPEKPRTIEETVKHEAQAMAPPKFRSSVITVGPSHCGSNQSTNIHQATTLPVSMSDRSKNVEERLDTSSGGSSGCSYGRNNKETVSGTSVTIDRKRKHVMDADQESVSQSDIGLTSTDDQTMGNKSSQRSGSTRRSRAAEVHNLSERRRRDRINERMKALQELIPHCSRTDKASILDEAIDYLKSLQMQLQVMWMGSGMAAAAAAAASPMMFPGVQSSPYINQMAMQSQMQLSQFPVMNRSAPQNHPGLVCQNPVQLQLQAQNQILSEQLARYMGGIPQMPPAGNQMQTVQQQPADMLGFGSPAGPQSQLSAPATTDSLHMGKIG
B3: Transcription factor PIF6 (Arabidopsis thaliana (Mouse-ear cress)), Q8L5W7 (parent)
chain: MMFLPTDYCCRLSDQEYMELVFENGQILAKGQRSNVSLHNQRTKSIMDLYEAEYNEDFMKSIIHGGGGAITNLGDTQVVPQSHVAAAHETNMLESNKHVDDSETLKASSSKRMMVDYHNRKKIKFIPPDEQSVVADRSFKLGFDTSSVGFTEDSEGSMYLSSSLDDESDDARPQVPARTRKALVKRKRNAEAYNSPERNQRNDINKKMRTLQNLLPNSHKDDNESMLDEAINYMTNLQLQVQMMTMGNRFVTPSMMMPLGPNYSQMGLAMGVGMQMGEQQFLPAHVLGAGLPGINDSADMLRFLNHPGLMPMQNSAPFIPTENCSPQSVPPSCAAFPNQIPNPNSLSNLDGATLHKKSRKTNR
B4: Transcription factor PIF4 (Arabidopsis thaliana (Mouse-ear cress)), Q8W2F3-2 (parent)
chain: MEHQGWSFEENYSLSTNRRSIRPQDELVELLWRDGQVVLQSQTHREQTQTQKQDHHEEALRSSTFLEDQETVSWIQYPPDEDPFEPDDFSSHFFSTMDPLQRPTSETVKPKSSPEPPQVMVKPKACPDPPPQVMPPPKFRLTNSSSGIRETEMEQYSVTTVGPSHCGSNPSQNDLDVSMSHDRSKNIEEKLNPNASSSSGGSSGCSFGKDIKEMASGRCITTDRKRKRINHTDESVSLSDAIGNKSNQRSGSNRRSRAAEVHNLSERVLHRFVYIIYNI

Variants of: B1
Conditions: with phyb_arath PHYB

effect of a mutation on the interaction | Variant
decreasing interaction | MPLFELFRLTKAKLESAQDRNPSPPVDEVVALVWENAQISTQSQSSRSRNIPPPQANSSRAREIGNGSKTTMVDEIPMSVPSLMTGLSQDDDFVPWLNHHPSLDGYCSDFLRDVSSPVTVNEQESDMAVNQTAFPLFQRRKDGNESAPAASSSQYNGFQSHSLYGSDRARDLPSQQTNPDRFTQTQEPLITSNKPSLVNFSHFLRPATFAKTTNNNLHDTKEKSPQSPPNVFQTRVLGAKDSEDKVLNESVASATPKDNQKACLISEDSCRKDQESEKAVVCSSVGSGNSLDGPSESPSLSLKRKHSNIQDIDCHSEDVEEESGDGRKEAGPSRTGLGSKRSRSAEVHNLSERRRRDRINEKMRALQELIPNCNKVDKASMLDEAIEYLKSLQLQVQIMSMASGYYLPPAVMFPPGMGHYPAAAAAMAMGMGMPYAMGLPDLSRGGSSVNHGPQFQVSGMQQQPVAMGIPRVSGGGIFAGSSTIGNGSTRDLSGSKDQTTTNNNSNLKPIKRKQGSSDQFCGSS [E31A;G37A]

Variants of: B2
Conditions: with phyb_arath PHYB

effect of a mutation on the interaction | Variant
decreasing interaction | MEQVFADWNFEDNFHMSTNKRSIRPEDELVELLWRDGAVVLQSQARREPSVQVQTHKQETLRKPNNIFLDNQETVQKPNYAALDDQETVSWIQYPPDDVIDPFESEFSSHFFSSIDHLGGPEKPRTIEETVKHEAQAMAPPKFRSSVITVGPSHCGSNQSTNIHQATTLPVSMSDRSKNVEERLDTSSGGSSGCSYGRNNKETVSGTSVTIDRKRKHVMDADQESVSQSDIGLTSTDDQTMGNKSSQRSGSTRRSRAAEVHNLSERRRRDRINERMKALQELIPHCSRTDKASILDEAIDYLKSLQMQLQVMWMGSGMAAAAAAAASPMMFPGVQSSPYINQMAMQSQMQLSQFPVMNRSAPQNHPGLVCQNPVQLQLQAQNQILSEQLARYMGGIPQMPPAGNQMQTVQQQPADMLGFGSPAGPQSQLSAPATTDSLHMGKIG [Q38A]
decreasing interaction | MEQVFADWNFEDNFHMSTNKRSIRPEDELVALLWRDGQVVLQSQARREPSVQVQTHKQETLRKPNNIFLDNQETVQKPNYAALDDQETVSWIQYPPDDVIDPFESEFSSHFFSSIDHLGGPEKPRTIEETVKHEAQAMAPPKFRSSVITVGPSHCGSNQSTNIHQATTLPVSMSDRSKNVEERLDTSSGGSSGCSYGRNNKETVSGTSVTIDRKRKHVMDADQESVSQSDIGLTSTDDQTMGNKSSQRSGSTRRSRAAEVHNLSERRRRDRINERMKALQELIPHCSRTDKASILDEAIDYLKSLQMQLQVMWMGSGMAAAAAAAASPMMFPGVQSSPYINQMAMQSQMQLSQFPVMNRSAPQNHPGLVCQNPVQLQLQAQNQILSEQLARYMGGIPQMPPAGNQMQTVQQQPADMLGFGSPAGPQSQLSAPATTDSLHMGKIG [E31A]
decreasing interaction | MEQVFADWNFEDNFHMSTNKRSIRPEDELVEALWRDGQVVLQSQARREPSVQVQTHKQETLRKPNNIFLDNQETVQKPNYAALDDQETVSWIQYPPDDVIDPFESEFSSHFFSSIDHLGGPEKPRTIEETVKHEAQAMAPPKFRSSVITVGPSHCGSNQSTNIHQATTLPVSMSDRSKNVEERLDTSSGGSSGCSYGRNNKETVSGTSVTIDRKRKHVMDADQESVSQSDIGLTSTDDQTMGNKSSQRSGSTRRSRAAEVHNLSERRRRDRINERMKALQELIPHCSRTDKASILDEAIDYLKSLQMQLQVMWMGSGMAAAAAAAASPMMFPGVQSSPYINQMAMQSQMQLSQFPVMNRSAPQNHPGLVCQNPVQLQLQAQNQILSEQLARYMGGIPQMPPAGNQMQTVQQQPADMLGFGSPAGPQSQLSAPATTDSLHMGKIG [L32A]
decreasing interaction | MEQVFADWNFEDNFHMSTNKRSIRPEDELVELLWRDAQVVLQSQARREPSVQVQTHKQETLRKPNNIFLDNQETVQKPNYAALDDQETVSWIQYPPDDVIDPFESEFSSHFFSSIDHLGGPEKPRTIEETVKHEAQAMAPPKFRSSVITVGPSHCGSNQSTNIHQATTLPVSMSDRSKNVEERLDTSSGGSSGCSYGRNNKETVSGTSVTIDRKRKHVMDADQESVSQSDIGLTSTDDQTMGNKSSQRSGSTRRSRAAEVHNLSERRRRDRINERMKALQELIPHCSRTDKASILDEAIDYLKSLQMQLQVMWMGSGMAAAAAAAASPMMFPGVQSSPYINQMAMQSQMQLSQFPVMNRSAPQNHPGLVCQNPVQLQLQAQNQILSEQLARYMGGIPQMPPAGNQMQTVQQQPADMLGFGSPAGPQSQLSAPATTDSLHMGKIG [G37A]

Variants of: B3
Conditions: with phyb_arath PHYB

effect of a mutation on the interaction | Variant
decreasing interaction | MMFLPTDYCCRLSDQEYMALVFENAQILAKGQRSNVSLHNQRTKSIMDLYEAEYNEDFMKSIIHGGGGAITNLGDTQVVPQSHVAAAHETNMLESNKHVDDSETLKASSSKRMMVDYHNRKKIKFIPPDEQSVVADRSFKLGFDTSSVGFTEDSEGSMYLSSSLDDESDDARPQVPARTRKALVKRKRNAEAYNSPERNQRNDINKKMRTLQNLLPNSHKDDNESMLDEAINYMTNLQLQVQMMTMGNRFVTPSMMMPLGPNYSQMGLAMGVGMQMGEQQFLPAHVLGAGLPGINDSADMLRFLNHPGLMPMQNSAPFIPTENCSPQSVPPSCAAFPNQIPNPNSLSNLDGATLHKKSRKTNR [E19A;G25A]

Variants of: B4
Conditions: with phyb_arath PHYB

effect of a mutation on the interaction | Variant
decreasing interaction | MEHQGWSFEENYSLSTNRRSIRPQDELVALLWRDAQVVLQSQTHREQTQTQKQDHHEEALRSSTFLEDQETVSWIQYPPDEDPFEPDDFSSHFFSTMDPLQRPTSETVKPKSSPEPPQVMVKPKACPDPPPQVMPPPKFRLTNSSSGIRETEMEQYSVTTVGPSHCGSNPSQNDLDVSMSHDRSKNIEEKLNPNASSSSGGSSGCSFGKDIKEMASGRCITTDRKRKRINHTDESVSLSDAIGNKSNQRSGSNRRSRAAEVHNLSERVLHRFVYIIYNI [E29A;G35A]
decreasing interaction | MEHQGWSFEENYSLSTNRRSIRPQDELVELLWRDAQVVLQSQTHREQTQTQKQDHHEEALRSSTFLEDQETVSWIQYPPDEDPFEPDDFSSHFFSTMDPLQRPTSETVKPKSSPEPPQVMVKPKACPDPPPQVMPPPKFRLTNSSSGIRETEMEQYSVTTVGPSHCGSNPSQNDLDVSMSHDRSKNIEEKLNPNASSSSGGSSGCSFGKDIKEMASGRCITTDRKRKRINHTDESVSLSDAIGNKSNQRSGSNRRSRAAEVHNLSERVLHRFVYIIYNI [G35A]
